# Data as given in paper PMC2746561.
# Assays:
# [1] = biological target: microtubules (polymerized tubulin) (UniProt Q6B856); experiment: co-sedimentation
# [2] = biological target: full Ska1 complex (Rama1/Ska1/Ska2) (human) (UniProt Q96BD8); experiment: SEC + other: sucrose gradient sedimentation
# full Ska1 complex (Rama1/Ska1/Ska2), sequence (Q96BD8 whole entry): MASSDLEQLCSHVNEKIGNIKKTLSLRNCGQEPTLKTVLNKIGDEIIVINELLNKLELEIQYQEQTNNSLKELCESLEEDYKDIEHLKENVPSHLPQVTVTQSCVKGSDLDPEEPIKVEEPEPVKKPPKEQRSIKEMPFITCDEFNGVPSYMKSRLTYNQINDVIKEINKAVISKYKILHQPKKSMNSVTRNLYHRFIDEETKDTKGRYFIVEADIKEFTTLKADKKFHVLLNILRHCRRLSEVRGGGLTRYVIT
# full Ska1 complex (Rama1/Ska1/Ska2), sequence (Q8WVK7 whole entry): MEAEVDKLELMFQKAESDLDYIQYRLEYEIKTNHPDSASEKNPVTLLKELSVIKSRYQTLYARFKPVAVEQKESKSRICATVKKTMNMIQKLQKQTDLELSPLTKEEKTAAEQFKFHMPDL
# full Ska1 complex (Rama1/Ska1/Ska2), sequence (Q8IX90 whole entry): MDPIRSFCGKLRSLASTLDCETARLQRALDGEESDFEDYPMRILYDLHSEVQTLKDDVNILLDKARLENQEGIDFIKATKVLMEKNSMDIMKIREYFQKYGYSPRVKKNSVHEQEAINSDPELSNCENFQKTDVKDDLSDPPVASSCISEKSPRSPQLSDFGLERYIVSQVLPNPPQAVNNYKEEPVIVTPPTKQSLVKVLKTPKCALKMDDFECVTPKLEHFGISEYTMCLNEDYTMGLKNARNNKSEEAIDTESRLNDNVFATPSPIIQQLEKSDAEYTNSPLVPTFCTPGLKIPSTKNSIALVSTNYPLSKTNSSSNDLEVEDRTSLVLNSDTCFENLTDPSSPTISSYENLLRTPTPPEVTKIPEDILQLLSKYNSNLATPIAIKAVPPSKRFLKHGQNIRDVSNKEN
substance,measurement,setting,value
full Ska1 complex (Rama1/Ska1/Ska2) (from UniProt Q96BD8 1-255; Q8WVK7 1-121; Q8IX90 1-412),stoichiometry N (per tubulin dimer),[1],1
same,stoichiometry N,[2],2
